No end group written: not given here. *: point of attachment. FITC = O=C1OC2(c3ccc(O)cc3Oc3cc(O)ccc32)c2ccc(NC(=S)*)cc21; Ahx = NCCCCCC(=O)O
What was measured:
[1] = molecular target: S1S25
[2] = molecular target: S3S25
[3] = molecular target: S1S23
[4] = molecular target: S3S23
[5] = molecular target: syntaxin1 (stx1) and SNAP25 (S25) (Rattus norvegicus, UniProt P32851+P60881)
[6] = test system: SNARE assemblies; type: binding

Chain of S3S23 (O00161 whole entry): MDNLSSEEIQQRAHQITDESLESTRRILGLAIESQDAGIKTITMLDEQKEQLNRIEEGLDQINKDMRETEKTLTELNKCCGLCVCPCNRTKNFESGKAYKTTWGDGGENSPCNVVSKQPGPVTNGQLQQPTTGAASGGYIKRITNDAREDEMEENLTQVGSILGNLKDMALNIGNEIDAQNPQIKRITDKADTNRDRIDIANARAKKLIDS
Chain of S1S23 (O00161 whole entry): as above
Chain of syntaxin1 (stx1) and SNAP25 (S25) (P60881 whole entry): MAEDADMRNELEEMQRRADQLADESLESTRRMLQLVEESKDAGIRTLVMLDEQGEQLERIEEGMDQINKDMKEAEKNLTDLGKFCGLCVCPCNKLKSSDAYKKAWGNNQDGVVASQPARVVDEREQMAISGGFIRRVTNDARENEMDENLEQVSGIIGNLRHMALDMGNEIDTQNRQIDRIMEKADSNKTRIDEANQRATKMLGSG
Chain of syntaxin1 (stx1) and SNAP25 (S25) (P32851 whole entry): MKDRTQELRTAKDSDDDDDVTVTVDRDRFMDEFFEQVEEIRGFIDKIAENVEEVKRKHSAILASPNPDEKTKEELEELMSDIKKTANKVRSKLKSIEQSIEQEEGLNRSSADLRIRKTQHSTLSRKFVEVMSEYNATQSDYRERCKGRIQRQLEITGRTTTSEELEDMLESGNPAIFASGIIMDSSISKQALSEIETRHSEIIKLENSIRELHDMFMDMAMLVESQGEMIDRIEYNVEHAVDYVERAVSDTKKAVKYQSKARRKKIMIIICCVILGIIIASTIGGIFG

**Q.** Which results are given for synaptobrevin (VAMP2)?
**A.** Tm [1]: 71 °C; Tm [2]: 59 °C; Tm [3]: 65 °C; Tm [4]: 61 °C

**Q.** Which “formation of SDS-resistant complex” value [5] does the source give for “{FITC-Ahx}-DIMRVNVDKVLERDQKLSELDDRADALQAGASQFETSAAKLA” here?
**A.** Its value is “still forms an SDS-resistant complex”.

**Q.** “Ac-ERKAKYAKMEAEREVMRQGIRDKYGIKKGSGSGGIKVAV-NH2 [29 amino acid complexin 1 peptide]” was tested. Which “interaction with SNARE assemblies” value [6] did it give?
**A.** The value was “can interact with SNARE assemblies”.

**Q.** For “{FITC-Ahx}-DKVLERDQKLSELDDRADALQAGASQFETSAAKLA [35 amino acid synaptobrevin SNARE motif]”, which “formation of SDS-resistant complex” value [5] is on record?
**A.** Its value is “forms a complex but it ‘melts’ during gel-electrophoresis”.

B1: VAMP4 (protein)
VAMP4: PPKFKRHLNDDDVTGSVKSERRNLLEDDSDEEEDFFLRGPSGPRFGPRNDKIKHVQNQVDEVIDVMQENITKVIERGERLDELQDKSESLSDNATAFSNRSKQLRRQMWWRGCK
**Q.** B1 was tested. Which Tm [1] did it give?
**A.** The Tm was 60 °C.

**Q.** What about the Tm [2] of the same molecule?
**A.** Its Tm is 53 °C.

**Q.** What about the Tm [3] of the same molecule?
**A.** Its Tm is 60 °C.

**Q.** And the Tm [4]?
**A.** The Tm was 57 °C.

B2: VAMP7 (protein)
VAMP7: AILFAVVARGTTILAKHAWCGGNFLEVTEQILAKIPSENNKLTYSHGNYLFHYICQDRIVYLCITDDDFERSRAFSFLNEVKKRFQTTYGSRAQTALPYAMNSEFSSVLAAQLKHHSENKSLDKVMETQAQVDELKGIMVRNIDLVAQRGERLELLIDKTENLVDSSVTFKTTSRNLARAMCMKNIK
**Q.** Which results are given for B2?
**A.** Tm [1]: 56 °C; Tm [2]: 45 °C; Tm [3]: 57 °C; Tm [4]: 50 °C

B3: VAMP5 (protein)
VAMP5: AGKELKQCQQQADEVTEIMLNNFDKVLERHGKLAELEQRSDQLLDMSSAFSKTTKTLAQQKRWENIRCR
**Q.** B3 was tested. Which Tm [1] did it give?
**A.** The Tm was 53 °C.

**Q.** And the Tm [2]?
**A.** Its Tm is 42 °C.

**Q.** And the Tm [3]?
**A.** Its Tm is 55 °C.

**Q.** What about the Tm [4] of the same molecule?
**A.** The Tm was 52 °C.

B4: VAMP8 (protein)
VAMP8: EEASGSAGNDRVRNLQSEVEGVKNIMTQNVERILSRGENLDHLRNKTEDLEATSEHFKTTSQKVARKFWWKNVK
**Q.** Which Tm [1] does the source give for B4 here?
**A.** The Tm was 57 °C.

**Q.** What about the Tm [2] of the same molecule?
**A.** The Tm was 48 °C.

**Q.** And the Tm [3]?
**A.** Its Tm is 57 °C.

**Q.** And the Tm [4]?
**A.** The Tm was 56 °C.

Reference: patent US20110038892A1 (priority 2009, published 2011)
